Experimental data published in patent US20140148503, “NUCLEIC ACID APTAMERS” (University of Iowa Research Foundation, published 2014).

Key:
[1] = target: T1, BSA (bovine serum albumin) (UniProt P02769 P02769:25-607); assay: SPR; no appreciable interaction; specificity control; details: label: 5'-biotin-spacer9-G
Procedure: (§1) Surface Plasmon Resonance (SPR) measurements were carried out using a BIACore 3000 device. 5′-biotinylated RNA was generated by transcription and gel purification as described above, except the transcription reactions were carried out in the presence of 3 mM biotin-G (Custom order from TriLink Biotechnologies, San Diego, Calif.: 5′-(Biotin) (Spacer 9) G-3′). The biotinylated RNA was immobilized on a streptavidin-coated Biacore chip (Sensor Chip SA, 13R-1003-98, General Electric Company) by injection in binding buffer at a concentration of 25 μg/mL (20 mM HEPES, pH 7.4, 150 mM NaCl, 2 mM CaCl₂). The RNA was refolded by heating to 65° C. followed by cooling to 37° C. prior to immobilization. To measure binding kinetics, fixed concentrations of purified protein were injected over the chip using the “KINJECT” function at a flow rate of 15 μL/min. After binding, the chip was regenerated by injecting 50 mM NaOH with the “QUICKINJECT” function. […]
(§2) Binding specificity of the A9g aptamer for PSMA was determined using SPR/BIACore (FIG. 4D; left panel). Binding specificity was assessed by comparing the kₒₙ, and koff rates of A9g for recombinant PSMA protein (target) to the Kₒₙ, and koff rates of A9g for non-target proteins (BSA and HER2). […] No appreciable interaction between A9g and the non-target proteins (BSA and HER2) was measured (FIG. 4D; left panel). […]

[2] = target: T2, PSMA (prostate specific membrane antigen) (Homo sapiens, UniProt Q04609 Q04609:44-750); assay: SPR; 1:1 with mass transfer; range 5-30 nM in triplicate; 20 mM HEPES pH 7.4, 150 mM NaCl, 2 mM CaCl2; details: tags: R&D Systems 4234-ZN-010; chain copies: 2; label: 5'-biotin-spacer9-G
Procedure: The data were fit to a 1:1 binding with mass transfer model. […] The on-rate (kₐ) was 1.15×10⁴ M⁻¹·S⁻¹ and the off-rate (kd) was 5.7×10⁻⁵ s⁻¹.
Surface Plasmon Resonance (SPR) measurements were carried out using a BIACore 3000 device. 5′-biotinylated RNA was generated by transcription and gel purification as described above, except the transcription reactions were carried out in the presence of 3 mM biotin-G (Custom order from TriLink Biotechnologies, San Diego, Calif.: 5′-(Biotin) (Spacer 9) G-3′). The biotinylated RNA was immobilized on a streptavidin-coated Biacore chip (Sensor Chip SA, 13R-1003-98, General Electric Company) by injection in binding buffer at a concentration of 25 μg/mL (20 mM HEPES, pH 7.4, 150 mM NaCl, 2 mM CaCl₂). The RNA was refolded by heating to 65° C. followed by cooling to 37° C. prior to immobilization. […]
The NAALADase activity assay provides an indirect measurement of the interaction of the PSMA aptamers with PSMA. […] As determined by the filter binding assay, the A9g aptamer retains the same binding profile as the full-length A9 (FIG. 3A). […] After the injection was halted, the rate of dissociation (koff) was measured. By repeating these measurements at various analyte (PSMA) concentrations, an accurate estimation of binding was determined (KD=koff/Kₒₙ).

[3] = target: T1, BSA (bovine serum albumin); assay: SPR; no measurable binding; details: label: 5'-biotin-spacer9-G
Procedure: as §1, §2

[4] = target: T2, PSMA (prostate specific membrane …); assay: SPR; lack of binding; details: tags: R&D Systems 4234-ZN-010; chain copies: 2; label: 5'-biotin-spacer9-G
Procedure: as §1, §2

[5] = target: T2, PSMA (prostate specific membrane …); assay: inhibition; NAALADase; 1 mM CoCl2, 37 C; details: tags: R&D Systems 4234-ZN-010; chain copies: 2
Procedure: Refolding was accomplished by heating at 65° C. for 10 minutes, followed by cooling to 37° C. for 10 minutes. A volume of 120 μL of refolded RNA in binding buffer was added to an Eppendorf tube, was combined with 40 μL of 200 mM Tris buffer, pH 7.5, and 20 μL 10 mM CoCl₂ (final concentrations in the reaction 40 mM and 1 mM, respectively). Cobalt (II) chloride was reported to be a “stimulator of enzymatic activity” in the original NAALADase assay protocol (Xiao, Z., et al., (2000) Generation of a baculovirus recombinant prostate-specific membrane antigen and its use in the development of a novel protein biochip quantitative immunoassay. Protein Expr Purif, 19, 12-21). When this compound was omitted from the reaction, we observed increased non-specific RNA interactions. Two micrograms in 2 μL of recombinant human PSMA (4234-ZN-010) from R&D Systems (Minneapolis, Minn.) was diluted in 500 μL of 50 mM pH 7.5 Tris buffer. Ten microliters of the PSMA solution (40 ng PSMA) was added to the reaction mix, and the reaction was incubated for 5 minutes at 37° C. to promote RNA-PSMA interaction. For the experiment shown in FIG. 1A, recombinant, purified human PSMA was obtained courtesy of Dr. David Spencer (Baylor College of Medicine, Houston, Tex.). […]
AG 1-X8 formate resin (200-400 mesh) columns from Bio-Rad (731-6221) were used to quantitate the [³H]-glutamate reaction product. […]

[6] = target: T2, PSMA (prostate specific membrane …); assay: filter; 37 C; details: tags: R&D Systems 4234-ZN-010; chain copies: 2
Source text: FIGS. 3A-3B. Binding of A9 and A9g to human PSMA. (A) A saturation filter binding assay was used to measure binding of A9 and A9g to recombinant human PSMA protein. […] The fraction bound was normalized to the Bₘₐₓ (maximal binding capacity) of A9. (B) Measurement of the binding affinity of A9g for recombinant human PSMA protein by surface plasmon resonance (SPR, BIACore). The data were fit to a 1:1 binding with mass transfer model. […] The on-rate (kₐ) was 1.15×10⁴ M⁻¹·S⁻¹ and the off-rate (kd) was 5.7×10⁻⁵ s⁻¹.
Filter binding assays were performed as previously described (Wong, I. and Lohman, T. M. (1993) A double-filter method for nitrocellulose-filter binding: application to protein-nucleic acid interactions. Prac Natl Acad Sci USA, 90, 5428-5432). Briefly, aptamers were 5′-end labeled with ³²P using PNK. RNA was incubated for 5 minutes with various concentrations of purified, recombinant human PSMA (4234-ZN-010) obtained from R&D Systems at 37° C. The reaction mixture was spotted onto a sandwich of nitrocellulose (Protran BA 83, 0.2 μm pore size, 10 402 488, Whatman), nylon (Zeta-Probe Blotting Membranes, 162-0153, Bio-Rad), and Whatman 3MM chromatography paper (3130-6189) assembled in a dot-blot apparatus. […] The ratio of bound:unbound RNA was calculated by exposing the filters to a storage phosphor screen and imaging with a phosphorimager.

[7] = target: T2, PSMA (prostate specific membrane …); assay: 32P-labeled RNA on cells, on ice; details: tags: 22Rv1 (1.7) prostate cancer cells; chain copies: 2
Procedure: One day prior to the binding assay, cells were plated in a 24-well plate at a density of approximately 100,000 cells per well. All subsequent procedures were performed on ice to prevent aptamer internalization. Prior to binding, each well was washed twice with 1 ml of ice-cold Dulbecco's phosphate-buffered saline in the absence of divalent cations (DPBS −/−) to remove growth media. Aptamers were 5′ end-labeled with ³²P using PNK from New England Biolabs as previously described (McNamara, J. O., et al., (2008) Multivalent 4-1BB binding aptamers costimulate CD8+ T cells and inhibit tumor growth in mice. J Clin Invest, 118, 376-386). The concentration of ³²P-radiolabeled aptamer was measured with UV-visible absorption spectroscopy, and serial dilutions ranging from 1000 nM to 30 nM were performed. To measure non-specific binding, serial dilutions were also made containing a high fixed concentration of non-radiolabeled A9g aptamer, at 10 μM. […] Bound RNA was collected by washing with 0.5 ml of 0.5 N NaOH which was added to 3 ml of scintillation fluid, and activity was measured. For each dilution, specific binding was calculated by subtracting the activity of the sample with a high concentration of non-radiolabeled (“cold”) aptamer added (i.e., non-specific binding) from the sample without cold aptamer added (i.e., total binding). […]

[8] = target: T2, PSMA (prostate specific membrane …); assay: cell_activity; transwell migration; invasion IC50 75 nM (FIG. 15C); details: tags: PSMA-expressing cells, migration and invasion assays; chain copies: 2
[9] = target: T2, PSMA (prostate specific membrane …); assay: inhibition; NAALADase of membrane extract; details: protein: extract; tags: membrane extract of PC-3 (PSMA+) cells stably expressing human PSMA; chain copies: 2
[10] = target: T2, PSMA (prostate specific membrane …); assay: filter; Bmax severely diminished; details: tags: R&D Systems 4234-ZN-010; chain copies: 2
Source text: FIGS. 4A-4D. Characterization of A9g binding to PSMA. (A) Secondary structural predictions of truncated A9 aptamers generated using the RNAStructure 4.6 algorithm. Base changes are denoted by an asterisk (*). Base changes were introduced in an attempt to either retain the predicted secondary structure (A9g.1 and A9g.2) or disrupt various secondary structural elements (A9g.3-A9g.6) of A9g. Two secondary structure predictions were given for the A9g.4 sequence, denoted by A9g.4a and A9g.4b. (B) Effect of A9g aptamer derivatives (A9g.1 through A9g.6) on PSMA NAALADase inhibitor activity. NAALADase activity was measured and normalized as in FIG. 1. (C) Saturation filter binding assay of A9g aptamer and A9g aptamer derivatives (A9g.3-A9g.6). (D) Binding of A9g to recombinant human PSMA, recombinant rat HER2 (rHER2), and BSA using BIACore (left panel). Binding of A9g.6 to recombinant human PSMA, recombinant rat HER2 (rHER2), and BSA using BIACore (right panel).
Filter binding assays were performed as previously described (Wong, I. and Lohman, T. M. (1993) A double-filter method for nitrocellulose-filter binding: application to protein-nucleic acid interactions. Prac Natl Acad Sci USA, 90, 5428-5432). Briefly, aptamers were 5′-end labeled with ³²P using PNK. RNA was incubated for 5 minutes with various concentrations of purified, recombinant human PSMA (4234-ZN-010) obtained from R&D Systems at 37° C. The reaction mixture was spotted onto a sandwich of nitrocellulose (Protran BA 83, 0.2 μm pore size, 10 402 488, Whatman), nylon (Zeta-Probe Blotting Membranes, 162-0153, Bio-Rad), and Whatman 3MM chromatography paper (3130-6189) assembled in a dot-blot apparatus. Bound RNA was captured on the nitrocellulose filter, while unbound RNA was captured on the nylon filter. The ratio of bound:unbound RNA was calculated by exposing the filters to a storage phosphor screen and imaging with a phosphorimager.

[11] = target: T2, PSMA (prostate specific membrane …); assay: cell_activity; transwell migration; details: tags: PSMA-expressing cells, migration and invasion assays; chain copies: 2

T2 sequence (Q04609 44-750, one chain of several): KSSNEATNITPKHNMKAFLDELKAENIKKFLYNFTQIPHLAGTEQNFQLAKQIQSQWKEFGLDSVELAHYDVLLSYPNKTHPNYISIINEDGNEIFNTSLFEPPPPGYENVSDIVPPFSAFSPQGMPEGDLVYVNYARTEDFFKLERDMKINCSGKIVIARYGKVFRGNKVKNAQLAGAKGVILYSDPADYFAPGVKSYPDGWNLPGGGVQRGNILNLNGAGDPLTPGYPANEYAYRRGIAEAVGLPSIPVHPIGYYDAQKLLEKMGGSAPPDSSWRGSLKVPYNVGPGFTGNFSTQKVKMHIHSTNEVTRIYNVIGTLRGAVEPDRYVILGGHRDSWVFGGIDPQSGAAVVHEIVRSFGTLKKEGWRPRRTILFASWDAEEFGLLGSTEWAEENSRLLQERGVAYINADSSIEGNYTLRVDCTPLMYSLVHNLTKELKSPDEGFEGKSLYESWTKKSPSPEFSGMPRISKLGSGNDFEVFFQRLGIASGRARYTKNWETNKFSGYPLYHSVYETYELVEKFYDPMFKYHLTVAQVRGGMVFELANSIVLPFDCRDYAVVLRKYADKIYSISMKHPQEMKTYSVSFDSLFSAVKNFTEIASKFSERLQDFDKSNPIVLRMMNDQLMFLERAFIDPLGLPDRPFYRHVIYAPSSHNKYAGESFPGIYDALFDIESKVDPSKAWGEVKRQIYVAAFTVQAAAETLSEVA
T1 sequence (P02769 25-607, one chain of several): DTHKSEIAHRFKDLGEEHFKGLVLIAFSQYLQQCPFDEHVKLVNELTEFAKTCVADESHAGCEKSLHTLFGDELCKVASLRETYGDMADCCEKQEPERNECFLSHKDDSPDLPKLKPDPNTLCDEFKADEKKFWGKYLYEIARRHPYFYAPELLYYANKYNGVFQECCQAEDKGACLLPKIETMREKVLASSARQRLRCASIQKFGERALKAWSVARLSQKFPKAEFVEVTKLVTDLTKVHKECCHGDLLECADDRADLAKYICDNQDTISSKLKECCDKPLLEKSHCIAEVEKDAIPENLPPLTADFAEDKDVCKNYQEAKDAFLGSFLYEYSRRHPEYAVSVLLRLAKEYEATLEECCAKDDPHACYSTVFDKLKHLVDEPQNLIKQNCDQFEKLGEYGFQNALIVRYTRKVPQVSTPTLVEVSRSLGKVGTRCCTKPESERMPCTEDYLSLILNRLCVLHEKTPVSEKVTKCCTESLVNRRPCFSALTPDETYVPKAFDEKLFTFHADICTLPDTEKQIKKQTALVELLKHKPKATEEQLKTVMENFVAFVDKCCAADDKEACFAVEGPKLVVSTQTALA

B1: A9g 5'-biotin (ssRNA)
RNA: GGGACCGAAAAAGACCUGACUUCUAUACUAAGUCUACGUUCCC
modifications: 2'-F pyrimidines
With B1 the binding result [1] was “no binding” and the Kd [2] was 5 nM.

B2: A9g.6 5'-biotin (ssRNA)
RNA: GGGACCGAAAAAGACCUGGCUUCUAUACUAAGUCUACGUUCCC
modifications: 2'-F pyrimidines
B2: no binding [3]; no binding [4].

B3: A9g (ssRNA)
RNA: GGGACCGAAAAAGACCUGACUUCUAUACUAAGUCUACGUUCCC
modifications: 2'-F pyrimidines
In the case of B3, the IC50 [5] is reported as about 10 nM, the Kd [6] is reported as 130 nM and the binding signal [7] is reported as ~2 fold binding capacity vs PSMA-negative PC-3. The IC50 [8] was 18 nM and the IC50 [9] was 290 nM.

B4: A9g.3 (U39G) (ssRNA)
RNA: GGGACCGAAAAAGACCUGACUUCUAUACUAAGUCUACGGUCCC
modifications: 2'-F pyrimidines
B4: no binding [10].

B5: A9g.6 (ssRNA)
RNA: GGGACCGAAAAAGACCUGGCUUCUAUACUAAGUCUACGUUCCC
modifications: 2'-F pyrimidines
B5: no binding [10].

B6: A9g.5 (ssRNA)
RNA: GGGACCGAAAAAGACCUGACUUCUAUACUAGGUCUACGUUCCC
modifications: 2'-F pyrimidines
B6: no binding [10].

B7: A9 (ssRNA)
RNA: GGGAGGACGAUGCGGACCGAAAAAGACCUGACUUCUAUACUAAGUCUACGUUCCCAGACGACUCGCCCGA
modifications: 2'-F pyrimidines
With B7 the IC50 [5] was about 10 nM, the Kd [6] was 110 nM and the IC50 [9] was 267 nM. The IC50 [11] was 81 nM.
